In the Immune Epitope Database (IEDB) one finds Kd data, which are given here for three sequences.

Bounds are passed on as bounds.

For assay [1], the target named is HLA-A*68:02. The experiment in a line: IEDB peptide-MHC binding, purified MHC/competitive/fluorescence; filed as Kd, often an IC50 or EC50 that approximates it; ≥ and ≤ were set here for values at or beyond the usual limits of such assays. Conditions: source organism: Coxiella burnetii Dugway 5J108-111.
Assay [2] has as its target HLA-A*26:03. Described as above. Conditions: source organism: Coxiella burnetii Dugway 5J108-111.
Assay [3] addresses HLA-B*40:01. Kind of assay: IEDB peptide-MHC binding, purified MHC/direct/fluorescence; filed as Kd, often an IC50 or EC50 that approximates it; ≥ and ≤ were set here for values at or beyond the usual limits of such assays. The note with it: source organism: Coxiella burnetii.
The target in assay [4] is HLA-A*01:01. Described as above. The note with it: source organism: Coxiella burnetii.
Assay [5] addresses HLA-B*58:01. The description is as above. The note with it: source organism: Coxiella burnetii.
In assay [6] the target is HLA-B*18:01. The description is as above. The note with it: source organism: Coxiella burnetii.
The target in assay [7] is HLA-A*11:01. The description is as above. Conditions: source organism: Coxiella burnetii.
Assay [8] addresses HLA-B*57:01. The assay is described as above. The note with it: source organism: Coxiella burnetii.
Assay [9] has as its target HLA-A*26:02. The description is as above. Conditions: source organism: Coxiella burnetii RSA 493.
In assay [10] the target is HLA-B*48:01. Described as above. The note with it: source organism: Coxiella burnetii.
The target in assay [11] is HLA-B*15:17. The assay is described as above. Conditions: source organism: Coxiella burnetii.
Assay [12] has as its target HLA-A*26:01. The description is as above. Conditions: source organism: Coxiella burnetii RSA 493.
Assay [13] addresses HLA-A*03:01. The assay is described as above. The note with it: source organism: Coxiella burnetii.
Assay [14] addresses HLA-B*27:05. The assay is described as above. The note with it: source organism: Coxiella burnetii.
The target of assay [15] is HLA-B*46:01. The assay is described as above. Conditions: source organism: Coxiella burnetii.
Assay [16] concerns the target HLA-B*15:01. The description is as above. The note with it: source organism: Coxiella burnetii.
The target in assay [17] is HLA-B*08:02. Described as above. The note with it: source organism: Coxiella burnetii RSA 493.
Assay [18] deals with HLA-A*31:01. The description is as above. Conditions: source organism: Coxiella burnetii.
The target of assay [19] is HLA-B*07:02. The assay is described as above. Conditions: source organism: Coxiella burnetii.
In assay [20] the target is HLA-B*08:01. Described as above. Conditions: source organism: Coxiella burnetii RSA 493.
The target of assay [21] is HLA-B*83:01. Kind of assay: IEDB peptide-MHC binding, purified MHC/competitive/fluorescence; filed as Kd, often an IC50 or EC50 that approximates it; ≥ and ≤ were set here for values at or beyond the usual limits of such assays. Conditions: source organism: Human alphaherpesvirus 1.
Assay [22] concerns the target HLA-A*32:15. Described as above. Conditions: source organism: Human alphaherpesvirus 1.
The target of assay [23] is HLA-B*45:06. The assay is described as above. Conditions: source organism: Human alphaherpesvirus 1.
Assay [24] deals with HLA-B*15:42. Described as above. Conditions: source organism: Human alphaherpesvirus 1.
Assay [25] has as its target HLA-B*51:01. Kind of assay: IEDB peptide-MHC binding, purified MHC/direct/fluorescence; filed as Kd, often an IC50 or EC50 that approximates it; ≥ and ≤ were set here for values at or beyond the usual limits of such assays. Conditions: source organism: Human alphaherpesvirus 1.
The target in assay [26] is HLA-C*05:01. Described as above.
Assay [27] deals with HLA-B*40:01. The experiment in a line: IEDB peptide-MHC binding, purified MHC/competitive/fluorescence; filed as Kd, often an IC50 or EC50 that approximates it; ≥ and ≤ were set here for values at or beyond the usual limits of such assays. The note with it: source organism: Salmonella enterica subsp. enterica serovar Typhi.
The target in assay [28] is HLA-A*01:01. Described as above. The note with it: source organism: Salmonella enterica subsp. enterica serovar Typhi.
In assay [29] the target is HLA-A*02:06. Described as above. The note with it: source organism: Salmonella enterica subsp. enterica serovar Typhi.
In assay [30] the target is HLA-B*58:01. Described as above. Conditions: source organism: Salmonella enterica subsp. enterica serovar Typhi.
In assay [31] the target is HLA-A*69:01. The description is as above. The note with it: source organism: Salmonella enterica subsp. enterica serovar Typhi.
Assay [32] deals with HLA-A*11:01. The description is as above. Conditions: source organism: Salmonella enterica subsp. enterica serovar Typhi.
For assay [33], the target named is HLA-B*48:01. Described as above. Conditions: source organism: Salmonella enterica subsp. enterica serovar Typhi.
For assay [34], the target named is HLA-B*15:17. Described as above. The note with it: source organism: Salmonella enterica subsp. enterica serovar Typhi.
Assay [35] has as its target HLA-A*03:01. The assay is described as above. Conditions: source organism: Salmonella enterica subsp. enterica serovar Typhi.
Assay [36] deals with HLA-B*27:05. Described as above. Conditions: source organism: Salmonella enterica subsp. enterica serovar Typhi.
In assay [37] the target is HLA-A*30:01. The assay is described as above. The note with it: source organism: Salmonella enterica subsp. enterica serovar Typhi.
Assay [38] addresses HLA-B*15:09. Described as above. Conditions: source organism: Salmonella enterica subsp. enterica serovar Typhi.
The target in assay [39] is HLA-B*46:01. The description is as above. The note with it: source organism: Salmonella enterica subsp. enterica serovar Typhi.
Assay [40] deals with HLA-B*15:01. The assay is described as above. Conditions: source organism: Salmonella enterica subsp. enterica serovar Typhi.
Assay [41] addresses HLA-B*38:01. The description is as above. Conditions: source organism: Salmonella enterica subsp. enterica serovar Typhi.
Assay [42] has as its target HLA-A*31:01. The description is as above. Conditions: source organism: Salmonella enterica subsp. enterica serovar Typhi.
In assay [43] the target is HLA-A*02:01. The description is as above. The note with it: source organism: Salmonella enterica subsp. enterica serovar Typhi.
Assay [44] concerns the target HLA-B*07:02. Described as above. Conditions: source organism: Salmonella enterica subsp. enterica serovar Typhi.
Assay [45] deals with HLA-B*08:01. The assay is described as above. The note with it: source organism: Salmonella enterica subsp. enterica serovar Typhi.
For assay [46], the target named is HLA-A*02:03. Described as above. The note with it: source organism: Salmonella enterica subsp. enterica serovar Typhi.

For the sequence IIGLLKIFR, the dissociation constant (Kd) in assay [1] was 1.32 µM; in [2], no less than 20 µM; in assay [3], no less than 20 µM; in [4] it was no less than 20 µM; in assay [5], no less than 20 µM; in assay [6], no less than 20 µM. Moreover, the Kd in assay [7] is 0.225 µM; in assay [8], no less than 20 µM; in assay [9], no less than 20 µM; in [10], no less than 20 µM; in [11] it was no less than 20 µM; in assay [12], no less than 20 µM. Moreover, the Kd was 0.407 µM in [13]; no less than 20 µM in [14]; no less than 20 µM in assay [15]; no less than 20 µM in assay [16]; no less than 20 µM in assay [17]; 0.0227 µM in assay [18]. The equilibrium dissociation constant (Kd) in assay [19] and in assay [20] was no less than 20 µM each time.

For MPYAAHDPI, the Kd in [21] was 0.172 µM; in assay [22], 0.136 µM; in [23], no less than 5 µM; in [24], no less than 5 µM; in assay [25], 0.364 µM; in [26] (source organism: Human alphaherpesvirus 1) it was no less than 20 µM.

For the sequence LSEEANWAF, the Kd is no less than 20 µM in [27]; 0.0423 µM in assay [28]; 0.0517 µM in [29]; 0.498 µM in assay [30]; no less than 20 µM in assay [31]; no less than 20 µM in assay [32]. The Kd is no less than 20 µM in assay [33]; 0.0232 µM in assay [34]; no less than 20 µM in assay [35]; no less than 20 µM in [36]; no less than 20 µM in assay [37]; no less than 20 µM in [38]. Further, the Kd in assay [39] is no less than 20 µM; in assay [40] it was 0.947 µM; in assay [41], no less than 20 µM; in assay [42] it was no less than 20 µM; in assay [43], no less than 20 µM; in [44] it was no less than 20 µM. Further, the values for the Kd in assay [45], in assay [46] and in assay [26] (source organism: Salmonella enterica subsp. enterica serovar Typhi str. CT18) were no less than 20 µM, no less than 20 µM and 0.005 µM, respectively.

The Kd is the constant that tells how readily two partners part at equilibrium.
